The values below come from patent US20070161060A1 (published 2007).

Data set [1] deals with AP2 adaptor protein complex (endogenous). Briefly: cell-based or functional assay.
Data set [2] deals with endogenous PIPKIγ of HEK293 cells (UniProt O60331). Briefly: co-IP from HEK293 cells expressing the Myc-tagged tail.
For data set [3], the target named is AP2 adaptor protein complex (endogenous).
In data set [4] the target is T1, β-catenin (UniProt P35222 2-781).
T1 sequence (looked up): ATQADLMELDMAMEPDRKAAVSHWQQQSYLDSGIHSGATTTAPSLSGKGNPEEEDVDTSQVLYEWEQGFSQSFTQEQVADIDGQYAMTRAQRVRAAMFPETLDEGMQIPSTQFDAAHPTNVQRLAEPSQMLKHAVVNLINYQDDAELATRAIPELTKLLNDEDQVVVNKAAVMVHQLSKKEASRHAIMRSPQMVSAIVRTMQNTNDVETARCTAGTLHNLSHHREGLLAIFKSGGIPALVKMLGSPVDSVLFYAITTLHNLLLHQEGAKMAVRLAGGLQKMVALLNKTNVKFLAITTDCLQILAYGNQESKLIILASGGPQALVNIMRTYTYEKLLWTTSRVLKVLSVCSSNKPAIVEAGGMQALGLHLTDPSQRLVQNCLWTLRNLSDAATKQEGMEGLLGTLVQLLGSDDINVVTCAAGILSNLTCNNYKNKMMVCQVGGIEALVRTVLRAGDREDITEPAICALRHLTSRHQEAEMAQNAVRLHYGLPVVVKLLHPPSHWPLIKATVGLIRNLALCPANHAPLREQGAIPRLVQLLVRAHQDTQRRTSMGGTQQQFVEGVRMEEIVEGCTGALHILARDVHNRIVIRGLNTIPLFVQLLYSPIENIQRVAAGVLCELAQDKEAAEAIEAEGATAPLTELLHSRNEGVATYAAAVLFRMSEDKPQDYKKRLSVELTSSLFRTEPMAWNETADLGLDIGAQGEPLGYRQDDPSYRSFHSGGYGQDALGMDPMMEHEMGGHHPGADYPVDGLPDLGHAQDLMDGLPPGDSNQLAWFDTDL
Briefly: immunoprecipitation from HEK293 cells.

Chain of endogenous PIPKIγ of HEK293 cells (O60331 whole entry): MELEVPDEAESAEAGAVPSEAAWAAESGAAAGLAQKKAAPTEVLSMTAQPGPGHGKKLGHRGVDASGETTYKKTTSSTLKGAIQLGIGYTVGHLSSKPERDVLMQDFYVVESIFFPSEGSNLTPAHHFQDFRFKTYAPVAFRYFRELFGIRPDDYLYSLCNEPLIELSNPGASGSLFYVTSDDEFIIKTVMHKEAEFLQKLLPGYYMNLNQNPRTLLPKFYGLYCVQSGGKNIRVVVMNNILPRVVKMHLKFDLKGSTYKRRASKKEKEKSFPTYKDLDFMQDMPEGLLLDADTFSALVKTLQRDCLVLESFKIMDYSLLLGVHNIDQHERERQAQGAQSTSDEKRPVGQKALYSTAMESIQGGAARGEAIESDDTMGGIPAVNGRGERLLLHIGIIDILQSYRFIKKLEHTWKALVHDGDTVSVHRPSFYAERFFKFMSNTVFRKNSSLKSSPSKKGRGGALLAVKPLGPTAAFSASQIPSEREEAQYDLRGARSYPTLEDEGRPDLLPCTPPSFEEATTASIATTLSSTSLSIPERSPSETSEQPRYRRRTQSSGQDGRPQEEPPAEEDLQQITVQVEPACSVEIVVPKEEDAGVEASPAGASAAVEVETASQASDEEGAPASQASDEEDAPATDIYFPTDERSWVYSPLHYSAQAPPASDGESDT

As to “HA-tagged wild-type PIPKIγ661 (from UniProt O70161 1-661) (enzyme)”, the internalized ALEXA Fluor 647 transferrin, mean fluorescence intensity relative to nonexpressing cells (flow cytometry, MDCK) in data set [1] is > 40 % increase. In data set [2], “c-Myc-tagged dimeric E-cadherin C-terminus (Myc-HR-ECDT) (from UniProt P12830 731-882)” gave a fold affinity against the monomer of 10 fold.

B1: HA-tagged PIPKIγ635 (protein)
chain: MELEVPDEAESAEAGAVTAEAAWSAESGAAAGMTQKKAGLAEAPLVTGQPGPGHGKKLGHRGVDASGETTYKKTTSSTLKGAIQLGIGYTVGNLSSKPERDVLMQDFYVVESIFFPSEGSNLTPAHHFQDFRFKTYAPVAFRYFRELFGIRPDDYLYSLCNEPLIELSNPGASGSVFYVTSDDEFIIKTVMHKEAEFLQKLLPGYYMNLNQNPRTLLPKFYGLYCVQSGGKNIRVVVMNNVLPRVVKMHLKFDLKGSTYKRRASKKEKEKSLPTYKDLDFMQDMPEGLLLDSDTFGALVKTLQRDCLVLESFKIMDYSLLLGVHNIDQQERERQAEGAQSKADEKRPVAQKALYSTAMESIQGGAARGEAIETDDTMGGIPAVNGRGERLLLHIGIIDILQSYRFIKKLEHTWKALVHDGDTVSVHRPSFYAERFFKFMSSTVFRKSSSLKSSPSKKGRGALLAVKPLGPTAAFSASQIPSEREDVQYDLRGARSYPTLEDEGRPDLLPCTPPSFEEATTASIATTLSSTSLSIPERSPSDTSEQPRYRRRTQSSGQDGRPQEEPHAEDLQKITVQVEPVCGVGVVPKEEGAGVEVPPCGASAAASVEIDAASQASEPASQASDEEDAPSTDIYF
Take B1: the “transferrin endocytosis (MDCK stable line)” value in data set [3] was “had no appreciable effect on transferrin endocytosis”.

B2: E-cadherin Val832Met (receptor, UniProt P12830 155-882, looked up)
chain: DWVIPPISCPENEKGPFPKNLVQIKSNKDKEGKVFYSITGQGADTPPVGVFIIERETGWLKVTEPLDRERIATYTLFSHAVSSNGNAVEDPMEILITVTDQNDNKPEFTQEVFKGSVMEGALPGTSVMEVTATDADDDVNTYNAAIAYTILSQDPELPDKNMFTINRNTGVISVVTTGLDRESFPTYTLVVQAADLQGEGLSTTATAVITVTDTNDNPPIFNPTTYKGQVPENEANVVITTLKVTDADAPNTPAWEAVYTILNDDGGQFVVTTNPVNNDGILKTAKGLDFEAKQQYILHVAVTNVVPFEVSLTTSTATVTVDVLDVNEAPIFVPPEKRVEVSEDFGVGQEITSYTAQEPDTFMEQKITYRIWRDTANWLEINPDTGAISTRAELDREDFEHVKNSTYTALIIATDNGSPVATGTGTLLLILSDVNDNAPIPEPRTIFFCERNPKPQVINIIDADLPPNTSPFTAELTHGASANWTIQYNDPTQESIILKPKMALEVGDYKINLKLMDNQNKDQVTTLEVSVCDCEGAAGVCRKAQPVEAGLQIPAILGILGGILALLILILLLLLFLRRRAVVKEPLLPPEDDTRDNVYYYDEEGGGEEDQDFDLSQLHRGLDARPEVTRNDVAPTLMSVPRYLPRPANPDEIGNFIDENLKAADTDPTAPPYDSLLMFDYEGSGSEAASLSSLNSSESDKDQDYDYLNEWGNRFKKLADMYGGGEDD
notes: whole, on cells; Expressed in HEK293 cells and co-immunoprecipitated from lysates; also called Val832Met E-cadherin mutant
Regarding B2, the binding result in data set [4] is given as “binds”.
